B1: GFP-tagged regulatory proteasome non-ATPase subunit 10 (RPN10) (other, UniProt P55036 1-377, looked up)
chain: MVLESTMVCVDNSEYMRNGDFLPTRLQAQQDAVNIVCHSKTRSNPENNVGLITLANDCEVLTTLTPDTGRILSKLHTVQPKGKITFCTGIRVAHLALKHRQGKNHKMRIIAFVGSPVEDNEKDLVKLAKRLKKEKVNVDIINFGEEEVNTEKLTAFVNTLNGKDGTGSHLVTVPPGPSLADALISSPILAGEGGAMLGLGASDFEFGVDPSADPELALALRVSMEEQRQRQEEEARRAAAASAAEAGIATTGTEDSDDALLKMTISQQEFGRTGLPDLSSMTEEEQIAYAMQMSLQGAEFGQAESADIDASSAMDTSEPAKEEDDYDVMQDPEFLQSVLENLPGVDPNNEAIRNAMGSLASQATKDGKKDKKEEDKK
notes: Transfected expression construct; also called GFP-tagged RPN10; not shown: GFP tag
B3: GFP-tagged regulatory proteasome non-ATPase subunit 13 (RPN13) (other, UniProt Q16186 1-407, looked up)
chain: MTTSGALFPSLVPGSRGASNKYLVEFRAGKMSLKGTTVTPDKRKGLVYIQQTDDSLIHFCWKDRTSGNVEDDLIIFPDDCEFKRVPQCPSGRVYVLKFKAGSKRLFFWMQEPKTDQDEEHCRKVNEYLNNPPMPGALGASGSSGHELSALGGEGGLQSLLGNMSHSQLMQLIGPAGLGGLGGLGALTGPGLASLLGSSGPPGSSSSSSSRSQSAAVTPSSTTSSTRATPAPSAPAAASATSPSPAPSSGNGASTAASPTQPIQLSDLQSILATMNVPAGPAGGQQVDLASVLTPEIMAPILANADVQERLLPYLPSGESLPQTADEIQNTLTSPQFQQALGMFSAALASGQLGPLMCQFGLPAEAVEAANKGDVEAFAKAMQNNAKPEQKEGDTKDKKDEEEDMSLD
notes: Transfected construct; not shown: GFP tag
B4: BBS5 (other, UniProt Q8N3I7 1-341, looked up)
chain: MSVLDALWEDRDVRFDLSAQQMKTRPGEVLIDCLDSIEDTKGNNGDRGRLLVTNLRILWHSLALSRVNVSVGYNCILNITTRTANSKLRGQTEALYILTKCNSTRFEFIFTNLVPGSPRLFTSVMAVHRAYETSKMYRDFKLRSALIQNKQLRLLPQEHVYDKINGVWNLSSDQGNLGTFFITNVRIVWHANMNDSFNVSIPYLQIRSIKIRDSKFGLALVIESSQQSGGYVLGFKIDPVEKLQESVKEINSLHKVYSASPIFGVDYEMEEKPQPLEALTVEQIQDDVEIDSDGHTDAFVAYFADGNKQQDREPVFSEELGLAIEKLKDGFTLQGLWEVMS
notes: Tested in the same co-IP series as the Myc- or HA-tagged BBS proteins

Test [1] deals with bbs4, bbs1 and ofd1 morphant zebrafish embryos. Briefly: Convergent extension (CE) and somite defects in morphant zebrafish embryos, coinjection. The test is classed as in vivo. Conditions: coinjection with bbs4 morpholino. Here is the method: Morpholinos against bbs1 ([NT] ID NO: 13), bbs4 ([NT] ID NO: 14), and ofd1 ([NT] ID NO: 15) were purchased from Gene Tools, LLC. Human RPN10, RPN13, and RPT6 mRNA were in vitro transcribed with a mMESSAGE mMACHINE SP6 Kit (Ambion). SFN was dissolved in DMSO (Sigma-Aldrich) at a stock concentration of 1 M and further diluted in water to 10 mM. The morpholino and mRNA or SFN were mixed, and a volume of 0.5 nl was microinjected.

The test system of test [2] is her4 expression (Notch target) in bbs4 morphant zebrafish embryos. Briefly: Whole-mount RNA in situ hybridization of her4 in morphant zebrafish. The test is classed as in vivo. The following applies: bbs4 morphants, coinjection, 4.5 dpf. The procedure: Morpholinos against bbs1 ([NT] ID NO: 13), bbs4 ([NT] ID NO: 14), and ofd1 ([NT] ID NO: 15) were purchased from Gene Tools, LLC. Human RPN10, RPN13, and RPT6 mRNA were in vitro transcribed with a mMESSAGE mMACHINE SP6 Kit (Ambion). SFN was dissolved in DMSO (Sigma-Aldrich) at a stock concentration of 1 M and further diluted in water to 10 mM. The morpholino and mRNA or SFN were mixed, and a volume of 0.5 nl was microinjected. Zebrafish embryos were fixed overnight in 4% PFA at 4° C. Residual pigment was removed by bleaching with 3% H2O2/0.5% KOH.

A further test relates to NICD. The test can be described thus: Immunoblot of NICD in BBS4-overexpressing cells treated with proteasome inhibitors. The test is classed as cell-based. The following applies: MG132 30 μM 5 hours, lactacystin 20 μM 5 hours. (In general: A western blot detects proteins with antibodies after separation by electrophoresis.)
The test system of the next test is JAG1. The test can be described thus: Immunoblot of GFP-JAG1 in BBS4-overexpressing cells treated with proteasome inhibitor. The test is classed as cell-based. The following applies: proteasome inhibitor 5 hours.
Another test deals with T1, BBS10 (UniProt Q8TAM1 1-723, limits assumed).
T1 construct: Tested in the same co-IP series as the Myc- or HA-tagged BBS proteins
T1 sequence (looked up): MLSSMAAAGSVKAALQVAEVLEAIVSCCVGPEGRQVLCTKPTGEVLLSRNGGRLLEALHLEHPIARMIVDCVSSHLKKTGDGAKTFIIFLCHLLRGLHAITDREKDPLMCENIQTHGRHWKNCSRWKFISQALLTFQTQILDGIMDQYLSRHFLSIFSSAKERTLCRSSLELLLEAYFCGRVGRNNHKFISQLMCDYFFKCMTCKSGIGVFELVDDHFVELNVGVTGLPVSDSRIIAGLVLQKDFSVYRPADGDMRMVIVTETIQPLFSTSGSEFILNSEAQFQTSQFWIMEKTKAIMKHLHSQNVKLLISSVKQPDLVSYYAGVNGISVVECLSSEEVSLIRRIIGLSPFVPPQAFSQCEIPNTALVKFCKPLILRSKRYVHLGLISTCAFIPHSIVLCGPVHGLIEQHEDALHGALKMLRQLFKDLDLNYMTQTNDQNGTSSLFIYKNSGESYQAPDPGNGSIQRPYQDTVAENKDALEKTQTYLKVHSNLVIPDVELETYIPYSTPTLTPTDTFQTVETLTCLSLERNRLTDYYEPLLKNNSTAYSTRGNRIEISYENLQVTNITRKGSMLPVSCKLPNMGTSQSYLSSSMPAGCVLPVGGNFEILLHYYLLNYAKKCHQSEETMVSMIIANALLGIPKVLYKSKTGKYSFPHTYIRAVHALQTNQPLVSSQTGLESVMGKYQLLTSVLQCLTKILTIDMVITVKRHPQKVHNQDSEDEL
The test can be described thus: co-immunoprecipitation, 1% Triton X-100. The procedure:
(§1) First, an unbiased mass spectrometry screen was conducted to identify putative OFD1-interacting proteins. This experiment uncovered a spectrum of proteasomal subunits including regulatory proteasome ATPase subunit 6 (RPT6), a finding confirmed by semiendogenous coimmunoprecipitation (FIG. 4A). […] To test the physiological relevance of a BBS-proteasome interactome, it was determined that BBS1 and RPN10 interacted at endogenous levels in protein lysates isolated from C57BL/6 mouse testes (FIG. 4A). To probe the relevance of these interactions, the question was asked whether loss of OFD1 or BBS4 alters the composition of the proteasome with respect to its subunits. Using a stable cell line expressing tagged regulatory proteasome non-ATPase subunit 11 (RPN11) (37), OFD1 was suppressed, 26S proteasome complexes were purified, and a robust reduction was observed (60%±8%) of 26S-bound regulatory proteasome ATPase subunit 2 (RPT2) in OFD1-depleted cells in comparison with that in control, while total RPT2 protein abundance was not affected by OFD1 depletion (FIG. 4B).

The target of the test “BBS5” is B4. The test can be described thus: co-immunoprecipitation, 1% Triton X-100. The procedure: as §1
Test [3] has as its target B3. The test can be described thus: co-immunoprecipitation, 1% Triton X-100. The procedure: as §1
Test [4] concerns the target T2, GFP-tagged regulatory proteasome ATPase subunit 6 (RPT6) (UniProt P62195 1-406).
T2 construct: Transfected construct; not shown: GFP tag
The test can be described thus: co-immunoprecipitation, 1% Triton X-100. The procedure:
as §1

In test [5] the target is B1. Briefly: co-immunoprecipitation, 1% Triton X-100. The procedure:
as §1

Where a SMILES comes first, the peptide text is derived from it. The star is where a group is joined. Cbz = O=C(OCc1ccccc1)*

T2 sequence (P62195 whole entry): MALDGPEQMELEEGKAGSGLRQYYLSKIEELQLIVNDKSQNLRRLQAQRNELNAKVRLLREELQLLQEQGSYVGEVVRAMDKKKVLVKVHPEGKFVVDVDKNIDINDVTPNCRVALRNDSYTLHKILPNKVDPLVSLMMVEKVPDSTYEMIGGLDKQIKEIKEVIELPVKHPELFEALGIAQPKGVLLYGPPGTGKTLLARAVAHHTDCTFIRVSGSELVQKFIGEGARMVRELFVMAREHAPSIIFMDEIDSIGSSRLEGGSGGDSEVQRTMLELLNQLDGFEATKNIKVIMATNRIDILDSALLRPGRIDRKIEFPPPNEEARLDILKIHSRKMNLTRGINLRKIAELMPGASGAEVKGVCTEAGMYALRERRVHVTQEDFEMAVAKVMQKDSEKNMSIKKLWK
Experimental for JAG1: (§2) Transfected cells and mouse tissues were lysed in modified RIPA buffer [150 mM sodium chloride, 50 mM Tris-HCl, pH7.4, 1% nonidet P-40, 0.1% sodium deoxycholate, 1 mM EDTA] with 1× proteasome inhibitor (Roche) and centrifuged at 4° C. for 15 minutes. […] Total protein in each sample was separated by SDS-PAGE on 4% to 15% Mini-PROTEAN TGX Precast Gel (Bio-Rad) with a Spectra Multicolor Broad Range Protein Ladder (Fermentas) and transferred to an Immun-Blot PVDF Membrane (Bio-Rad). […] Densitometric analysis was performed with Image Lab (Bio-Rad), Quantity One (Bio-Rad), or ImageJ 1.44p (NIH) software.
(§3) Drug treatment was carried out at a final concentration of 10 μM SFN (Sigma-Aldrich) for 6 to 24 hours, 30 μm N-carbobenzoxyl- ? -leucinyl- ? -leucinyl- ? -norleucinal (MG132; Calbiochem) for 5 hours, 20 μM lactacystin (EMD Bioscience) for 5 hours, and 50 ng/ml TNF-α (Sigma-Aldrich) for 12 hours.
Experimental for NICD: as §2, §3

Take `CC1(O)CCOC(=O)C1` (racemic) [MVA, (±)-β-hydroxy-β-methyl-δ-valerolactone]: the “bbs4 morphant zebrafish with CE defects” value in test [1] (9±1 ss, 47.8% without MVA) was 11.4%. In addition, the “bbs4 morphants with CE and somitic defects” value in [1] (blind scoring at 9±1 ss) was “rescues”. The “ectopic expression of her4 in neural structures” value in test [2] is “reduced”. For the molecule `CC(C)C[C@@H](C=O)NC(=O)[C@H](CC(C)C)NC(=O)[C@H](CC(C)C)NC(=O)OCc1ccccc1` [MG132] (Cbz-Leu-Leu-Leu-aldehyde), the “NICD protein levels, of basal levels” value in the test on NICD came out at 93%. Further, the “JAG1 levels, of basal levels” value with JAG1 is listed as 99%±38%. For `CC(=O)N[C@@H](CSC(=O)[C@]1([C@@H](O)C(C)C)NC(=O)[C@H](C)[C@@H]1O)C(=O)O` [lactacystin], the “NICD protein levels, of basal levels” value in the test on NICD amounted to 138%.

As to B1, the binding result with BBS10 is reported as “no binding”.

B2: GFP-tagged PSMB1 (proteasome subunit beta type 1, subunit in the 20S particle) (other, UniProt P20618 1-241, looked up)
chain: MLSSTAMYSAPGRDLGMEPHRAAGPLQLRFSPYVFNGGTILAIAGEDFAIVASDTRLSEGFSIHTRDSPKCYKLTDKTVIGCSGFHGDCLTLTKIIEARLKMYKHSNNKAMTTGAIAAMLSTILYSRRFFPYYVYNIIGGLDEEGKGAVYSFDPVGSYQRDSFKAGGSASAMLQPLLDNQVGFKNMQNVEHVPLSLDRAMRLVKDVFISAAERDVYTGDALRICIVTKEGIREETVSLRKD
notes: as for B3
In the case of B2, the binding result in the test with BBS5 and with BBS10 was “no binding” in each case.

With B3, the binding result with BBS10 is given as “no binding”.

Consider B4, for which the binding result in test [3], in [4] and in [5] was “no binding” each time.
